Among the data in patent publication US20250215104A1 (WALDEN BIOSCIENCES, published 2025) are koff values, retold here.

In assay [1] the target is T1, human soluble urokinase plasminogen activator receptor (suPAR) (human, UniProt Q03405 23-303, limits assumed).
T1 construct: Column head says only 'human'; also called human suPAR; hsuPAR
Briefly: BLI (Octet) off-rate screen of scFv clones. (Biolayer interferometry detects binding as a change in optical thickness at a sensor tip.)

The target of assay [2] is T2, cynomolgus soluble urokinase plasminogen activator receptor (suPAR) (cynomolgus, UniProt Q9GK78 23-303, limits assumed).
T2 construct: Column head says only 'cynomologus'; also called cynomolgus suPAR; cynomolgus uPAR
Briefly: BLI (Octet) off-rate screen of scFv clones.

T2 sequence (Q9GK78 23-303 limits assumed): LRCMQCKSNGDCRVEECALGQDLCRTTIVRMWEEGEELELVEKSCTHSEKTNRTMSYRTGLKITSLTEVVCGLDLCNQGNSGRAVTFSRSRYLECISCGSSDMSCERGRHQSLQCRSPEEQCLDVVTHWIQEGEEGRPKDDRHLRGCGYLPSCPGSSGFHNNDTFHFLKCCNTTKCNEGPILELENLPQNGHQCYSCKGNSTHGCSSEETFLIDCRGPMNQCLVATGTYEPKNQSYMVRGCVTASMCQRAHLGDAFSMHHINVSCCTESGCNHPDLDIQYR
T1 sequence (Q03405 23-303 limits assumed): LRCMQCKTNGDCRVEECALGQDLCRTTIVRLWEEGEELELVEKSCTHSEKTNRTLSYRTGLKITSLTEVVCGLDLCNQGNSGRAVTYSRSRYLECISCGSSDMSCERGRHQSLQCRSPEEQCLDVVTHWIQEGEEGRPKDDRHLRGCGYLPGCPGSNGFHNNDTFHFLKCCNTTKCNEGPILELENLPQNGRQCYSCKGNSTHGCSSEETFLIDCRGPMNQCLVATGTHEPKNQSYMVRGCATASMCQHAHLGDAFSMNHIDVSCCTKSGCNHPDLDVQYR

B1: suPAR_DB02_D01 (scFv, V domains shown)
VH: QVQLVQSGAEVKKPGASVKVSCKASGYTFTDYYMHWVRQAPGQGLEWMGWIDHENGNTIYDQKFQGRVTMTRDTSTSTVYMELSSLRSEDTAVYYCARGYDVDWFVYWGQGTLVTVSS
VL: DIQMTQSPSSLSASVGDRVTITCSARSSVSYMYWYQQKPGKAPKLLIYRTSNLASGVPSRFSGSGSGTDFTLTISSLQPEDFATYYCQQYHSYPPTFGGGTKVEIK
notes: scFv clone from phage display
By koff is commonly meant a measure of how fast the partners let go of each other. Low values mean slow dissociation, high ones fast dissociation. As for B1, the values for the koff in assay [1] and in assay [2] were 0.003 s⁻¹ and 4.7e-07 s⁻¹, respectively.

B2: suPAR_DB02_C09 (scFv, V domains shown)
VH: QVQLVQSGAEVKKPGASVKVSCKASGYTFTGYYMHWVRQAPGQGLEWVGLINPSDGYTTYAQKFQGRVTMTRDTSTSTVYMELSSLRSEDTAVYYCARGYDVDWFVYWGQGTLVTVSS
VL: DIQMTQSPSSLSASVGDRVTITCSARSSVSYMYWYQQKPGKAPKLLIYRTSNLASGVPSRFSGSGSGTDFTLTISSLQPEDFATYYCQQYHSYPPTFGGGTKVEIK
notes: scFv clone from phage display
As for B2, the koff turned out to be 0.00387 s⁻¹ in assay [1] and 0.000335 s⁻¹ in assay [2].

B3: suPAR_DB02_F09 (scFv, V domains shown)
VH: QVQLVQSGAEVKKPGASVKVSCKASGYTFTGYYMHWVRQAPGQGLEWMGWIDPEGGSTIYDQKFQGRVTMTRDTSTSTVYMELSSLRSEDTAVYYCAGGYDVDWFVYWGQGTLVTVSS
VL: DIQMTQSPSSLSASVGDRVTITCSARSSVSYMYWYQQKPGKAPKLLIYRTSNLASGVPSRFSGSGSGTDFTLTISSLQPEDFATYYCQQYHSYPPTFGGGTKVEIK
notes: scFv clone from phage display
For the molecule B3, the values for the off-rate (koff) in assay [1] and in assay [2] were 0.00166 s⁻¹ and 0.000624 s⁻¹, respectively.

B4: suPAR_DB02_D04 (scFv, V domains shown)
VH: QVQLVQSGAEVKKPGASVKVSCKASGFTIKDYYMHWVRQAPGQGLEWMGWIDPDSGGTNYAEKFQGRVTMTRDTSTSTVYMELSSLRSEDTAVYYCARGYDVDWFVYWGQGTLVTVSS
VL: DIQMTQSPSSLSASVGDRVTITCRARQSVSYMYWYQQKPGKAPKLLIYRTSNLASGVPSRFSGSGSGTDFTLTISSLQPEDFATYYCQQYHSYPPTFGGGTKVEIK
notes: scFv clone from phage display
As to B4, the koff in assay [1] is 0.0041 s⁻¹; in assay [2] it was 0.000281 s⁻¹.

B5: suPAR_DB02_C06 (scFv, V domains shown)
VH: QVQLVQSGAEVKKPGASVKVSCKASGFNITDYYMHWVRQAPGQGLEWMGWIDHENGNTIYDQKFQGRVTMTRDTSTSTVYMELSSLRSEDTAVYYCARGYDVDWFVYWGQGTLVTVSS
VL: DIQMTQSPSSLSASVGDRVTITCSASQSVSYMYWYQQKPGKAPKLLIYRTSNLASGVPSRFSGSGSGTDFTLTISSLQPEDFATYYCQQYHSYPPTFGGGTKVEIK
notes: scFv clone from phage display
In the case of B5, the dissociation rate constant (koff) in assay [1] was 0.00475 s⁻¹; in assay [2], 0.000141 s⁻¹.

B6: suPAR_DB02_D06 (scFv, V domains shown)
VH: QVQLVQSGAEVKKPGASVKVSCKASGDTFANYYMHWVRQAPGQGLEWMGWIIPNSGDTNYAQKFQGRVTMTRDTSTSTVYMELSSLRSEDTAVYYCARGYDVDWFVYWGQGTLVTVSS
VL: DIQMTQSPSSLSASVGDRVTITCSARSSVSYMYWYQQKPGKAPKLLIYRTSSLQSGVPSRFSGSGSGTDFTLTISSLQPEDFATYYCQQYHSYPPTFGGGTKVEIK
notes: scFv clone from phage display
As to B6, the koff in assay [1] was determined as 0.00416 s⁻¹; in assay [2] it was 0.00051 s⁻¹.

B7: suPAR_DB02_E11 (scFv, V domains shown)
VH: QVQLVQSGAEVKKPGASVKVSCKASGGTFSNYYMHWVRQAPGQGLEWMGWIDHENGNTIYDQKFQGRVTMTRDTSTSTVYMELSSLRSEDTAVYYCARGYDVDWFVYWGQGTLVTVSS
VL: DIQMTQSPSSLSASVGDRVTITCRARQSVSYMYWYQQKPGKAPKLLIYRTSSLASGVPSRFSGSGSGTDFTLTISSLQPEDFATYYCQQYHSYPPTFGGGTKVEIK
notes: scFv clone from phage display
For the molecule B7, the off-rate (koff) worked out at 0.00423 s⁻¹ in assay [1] and 0.000376 s⁻¹ in assay [2].

B8: suPAR_DB02_F04 (scFv, V domains shown)
VH: QVQLVQSGAEVKKPGASVKVSCKASGYTLTSYYVHWVRQAPGQGLEWMGWIDPKSGDTKYAHKFQGRVTMTRDTSTSTVYMELSSLRSEDTAVYYCARGYDVDWFVYWGQGTLVTVSS
VL: DIQMTQSPSSLSASVGDRVTITCSARSSVSYMYWYQQKPGKAPKLLIYRTSNLASGVPSRFSGSGSGTDFTLTISSLQPEDFATYYCQQYHSYPPTFGGGTKVEIK
notes: scFv clone from phage display
In the case of B8, the off-rate constant (koff) in assay [1] was determined as 0.00384 s⁻¹; in assay [2] it was 0.000453 s⁻¹.

B9: suPAR_DB02_F06 (scFv, V domains shown)
VH: QVQLVQSGAEVKKPGASVKVSCKASGFNFTDYYIHWVRQAPGQGLEWMGWIDPNSGSTNYAQNFQGRVTMTRDTSTSTVYMELSSLRSEDTAVYYCARGYMVDWFVYWGQGTLVTVSS
VL: DIQMTQSPSSLSASVGDRVTITCSARSSVSYMYWYQQKPGKAPKLLIYRTSNLASGVPSRFSGSGSGTDFTLTISSLQPEDFATYYCQQYHSYPPTFGGGTKVEIK
notes: scFv clone from phage display
For the molecule B9, the koff in assay [1] was found to be 0.00495 s⁻¹; in assay [2], 0.000174 s⁻¹.

B10: suPAR_DB02_E09 (scFv, V domains shown)
VH: QVQLVQSGAEVKKPGASVKVSCKASGFNIKDYYIHWVRQAPGQGLEWMGWIDPNSGGTNYAQKFQGRVTMTRDTSTSTVYMELSSLRSEDTAVYYCARGYDVDWFVYWGQGTLVTVSS
VL: DIQMTQSPSSLSASVGDRVTITCSARSSVSYMYWYQQKPGKAPKLLIYRTSNLASGVPSRFSGSGSGTDFTLTISSLQPEDFATYYCQQYHSYPPTFGGGTKVEIK
notes: scFv clone from phage display
Regarding B10, the koff in assay [1] is 0.00473 s⁻¹; in assay [2], 0.00021 s⁻¹.

B11: suPAR_DB02_F07 (scFv, V domains shown)
VH: QVQLVQSGAEVKKPGASVKVSCKASGYTFTGYYVHWVRQAPGQGLEWMGWIDPEGGNTIYDQKFQGRVTMTRDTSTSTVYMELSSLRSEDTAVYYCARGYDVDWFVYWGQGTLVTVSS
VL: DIQMTQSPSSLSASVGDRVTITCRARQSVSYMYWYQQKPGKAPKLLIYRTSNLQSGVPSRFSGSGSGTDFTLTISSLQPEDFATYYCQQYHSYPPTFGGGTKVEIK
notes: scFv clone from phage display
Take B11: the koff in assay [1] stood at 0.002 s⁻¹; in assay [2] it was 0.000384 s⁻¹.

B12: suPAR_DB02_F08 (scFv, V domains shown)
VH: QVQLVQSGAEVKKPGASVKVSCKASGYTFTGYYIHWVRQAPGQGLEWMGWIDPENGNTIYAQKFQGRVTMTRDTSTSTVYMELSSLRSEDTAVYYCARGYDVDWFVYWGQGTLVTVSS
VL: DIQMTQSPSSLSASVGDRVTITCSASSSISYMYWYQQKPGKAPKLLIYRTSNLASGVPSRFSGSGSGTDFTLTISSLQPEDFATYYCQQYHSYPPTFGGGTKVEIK
notes: scFv clone from phage display
Turning to B12, the figures for the dissociation rate constant (koff) in assay [1] and in assay [2] were 0.0021 s⁻¹ and 2.47e-05 s⁻¹, respectively.

B13: suPAR_DB02_E05 (scFv, V domains shown)
VH: QVQLVQSGAEVKKPGASVKVSCKASGFNIKDYYIHWVRQAPGQGLEWMGWVDPSSGATDYAQKFQGRVTMTRDTSTSTVYMELSSLRSEDTAVYYCARGYDVDWFVYWGQGTLVTVSS
VL: DIQMTQSPSSLSASVGDRVTITCSARSSVSYMYWYQQKPGKAPKLLIYRTSNLASGVPSRFSGSGSGTDFTLTISSLQPEDFATYYCQQYHSYPPTFGGGTKVEIK
notes: scFv clone from phage display
B13: the koff in assay [1] turned out to be 0.00239 s⁻¹; in assay [2] it was 0.00146 s⁻¹.

B14: suPAR_DB02_C07 (scFv, V domains shown)
VH: QVQLVQSGAEVKKPGASVKVSCKASGYTFTDSYIHWVRQAPGQGLEWMGWIDANNGDTNYAERFQGRVTMTRDTSTSTVYMELSSLRSEDTAVYYCARGYDVDWFVYWGQGTLVTVSS
VL: DIQMTQSPSSLSASVGDRVTITCSARSSVSYMYWYQQKPGKAPKLLIYRTSNLASGVPSRFSGSGSGTDFTLTISSLQPEDFATYYCQQYHSYPPTFGGGTKVEIK
notes: scFv clone from phage display
For B14, the koff in assay [1] stood at 0.0026 s⁻¹.
